Data on one substance can be found in publication PMC5623066.

The target in this experiment is TDP2 used in vitro (construct not stated) (UniProt O95551).

Usually Kd stands for the constant that tells how readily two partners part at equilibrium. High values mean weaker binding, low ones tighter binding. “SUMO2 used in vitro (from UniProt P61956 10-93) (natural protein)” had a Kd of 880 nM.
